# Assay results reported in article PMC6166989 (PLoS Pathogens, 2018).
# B1: PV-2C-[change] (poliovirus 2C^ATPase residues 116–329) (domain or fragment)
# chain: SKHRIEPVCLLVHGSPGTGKSVATNLIARAIAERENTSTYSLPPDPSHFDGYKQQGVVIMDDLNQNPDGADMKLFCQMVSTVEFIPPMASLEEKGILFTSNYVLASTNSSRISPPTVAHSDALARRFAFDMDIQVMNEYSRDGKLNMAMATEMCKNCHQPANFKRCCPLVCGKAIQLMDKSSRVRYSIDQITTMIINERNRRSNIGNCMEALFQ
# Target: the molecule itself
# Experiment: SEC
protein,measurement,value
B1,stoichiometry N,4
